Three molecules from patent US20080038248A1 (published 2008) can be followed below.

T1: soluble recombinant extracellular domain of ULBP1, 6-Histidine N-terminal fusion (human, UniProt Q9BZM6 26-216, limits assumed)
T1 construct: extracellular domain
T1 sequence: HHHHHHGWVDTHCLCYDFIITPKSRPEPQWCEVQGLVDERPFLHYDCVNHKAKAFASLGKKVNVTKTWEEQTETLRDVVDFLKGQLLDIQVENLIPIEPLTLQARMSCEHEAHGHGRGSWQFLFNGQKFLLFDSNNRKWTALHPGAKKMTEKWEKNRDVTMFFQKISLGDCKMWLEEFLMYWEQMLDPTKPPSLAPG

T2: soluble recombinant extracellular domain of ULBP2, 6-Histidine N-terminal fusion (human, UniProt Q9BZM5 26-217, limits assumed)
T2 construct: extracellular domain
T2 sequence: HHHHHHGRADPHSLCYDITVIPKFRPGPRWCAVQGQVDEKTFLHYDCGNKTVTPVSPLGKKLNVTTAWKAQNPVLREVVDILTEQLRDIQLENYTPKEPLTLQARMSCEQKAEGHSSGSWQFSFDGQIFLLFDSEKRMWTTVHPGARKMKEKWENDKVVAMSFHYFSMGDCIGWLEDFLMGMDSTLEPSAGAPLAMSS

T3: soluble recombinant extracellular domain of ULBP3, 6-Histidine N-terminal fusion (human, UniProt Q9BZM4 30-217, limits assumed)
T3 construct: extracellular domain
T3 sequence: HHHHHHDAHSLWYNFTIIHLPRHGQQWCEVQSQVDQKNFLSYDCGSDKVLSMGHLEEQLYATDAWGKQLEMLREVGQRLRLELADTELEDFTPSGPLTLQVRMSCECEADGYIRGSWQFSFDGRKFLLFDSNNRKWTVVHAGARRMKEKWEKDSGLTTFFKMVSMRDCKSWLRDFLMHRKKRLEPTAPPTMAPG

T4: soluble recombinant extracellular domain of RAET1E, 6-Histidine N-terminal fusion (human, UniProt Q8TD07 31-225)
T4 construct: extracellular domain
T4 sequence: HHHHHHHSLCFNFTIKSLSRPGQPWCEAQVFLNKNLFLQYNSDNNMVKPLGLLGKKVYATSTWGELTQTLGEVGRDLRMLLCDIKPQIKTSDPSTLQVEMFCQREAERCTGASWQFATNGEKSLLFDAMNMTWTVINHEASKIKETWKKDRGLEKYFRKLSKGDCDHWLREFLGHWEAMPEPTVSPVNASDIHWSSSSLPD

B1: NKG2D-Fc fusion protein (Fc fusion, human, UniProt P26718 73-216, looked up)
chain: IWSAVFLNSLFNQEVQIPLTESYCGPCPKNWICYKNNCYQFFDESKNWYESQASCMSQNASLLKVYSKEDQDLLKLVKSYHWMGLVHIPTNGSWQWEDGSILSPNLLTIIEMQKGDCALYASSFKGYIENCSTPNTYICMQRTV
notes: Produced in 293T cells, purified on Protein A. 'The fusion was C-terminal to human IgG1 hinge-CH2-CH3 domains'; also called recombinant soluble Fc fusion protein of NKG2D; not shown: human IgG1 hinge-CH2-CH3 domains, N-terminal to NKG2D (in pcDNA3.0)
B2: soluble recombinant extracellular domain of RAET1G, 6-Histidine N-terminal fusion (ligand, human)
chain: HHHHHHGLADPHSLCYDITVIPKFRPGPRWCAVQGQVDEKTFLHYDCGSKTVTPVSPLGKKLNVTTAWKAQNPVLREVVDILTEQLLDIQLENYIPKEPLTLQARMSCEQKAEGHGSGSWQLSFDGQIFLLFDSENRMWTTVHPGARKMKEKWENDKDMTMSFHYISMGDCTGWLEDFLMGMDSTLEPSAGAPPTMSSGTAQPR
notes: extracellular domain; also called 6-His tagged recombinant RAET1G
B3: UL16 Fc fusion (Fc fusion)
chain: VDLGSKSSNSTCRLNVTELASIHPGETWTLHGMCISICYYENVTEDEIIGVAFTWQHNESVVDLWLYQNDTVIRNFSDITTNILQDGLKMRTVPVTKLYTSRMVTNLTVGRYDCLRCENGTTKIIERLYVRLGSLYPRPPGSGLAKHPSVSADEELSA
notes: not shown: human IgG1 CH2-CH3, C-terminal to UL16 (vector SignalpIgplus)

In experiment [1] the target is T1, soluble recombinant extracellular …. Nature of the experiment: SPR (BIACore 2000), NKG2D-Fc captured on anti-human IgG, ULBP1 as analyte; joint global fit. (In SPR one partner is held on a chip, and binding of the other changes the refractive index at the surface.)
Procedure: (§1) SPR was carried out on a BIACore2000 machine. Running buffer, sensor chips and surface coupling reagents were from BIACore. Anti Human IgG (Dako) was coupled to a CM5 surface using NHS/EDC chemistry. […] Surface regeneration was using 5 μl of 10 mM HCl. […] Kinetic analysis was performed using BIAEvaluation 3.1 software.
Experiment [2] has as its target T2, soluble recombinant extracellular …. Nature of the experiment: SPR (BIACore 2000), NKG2D-Fc captured on anti-human IgG, ULBP2 as analyte; separate off-rate fit.
Procedure: as §1
For experiment [3] the target is unchanged. The experiment is described as follows: SPR (BIACore 2000), NKG2D-Fc captured on anti-human IgG, ULBP2 as analyte; derived from joint fit.
Procedure: as §1
Experiment [4] has as its target T3, soluble recombinant extracellular …. The experiment is described as follows: SPR (BIACore 2000), NKG2D-Fc captured on anti-human IgG, ULBP3 as analyte; derived from joint fit.
Procedure: as §1
Experiment [5] has the same target. Nature of the experiment: SPR (BIACore 2000), NKG2D-Fc captured on anti-human IgG, ULBP3 as analyte; joint global fit.
Procedure: as §1
For experiment [6] the target is unchanged. Nature of the experiment: SPR (BIACore 2000), NKG2D-Fc captured on anti-human IgG, ULBP3 as analyte; separate off-rate fit.
Procedure: as §1
Experiment [7] addresses B2. The experiment is described as follows: SPR (BIACore 2000), NKG2D-Fc captured on anti-human IgG, RAET1G as analyte; joint global fit.
Procedure: as §1
For experiment [8], the target named is T1, soluble recombinant extracellular …. The experiment is described as follows: SPR (BIACore 2000), NKG2D-Fc captured on anti-human IgG, ULBP1 as analyte; derived from joint fit.
Procedure: as §1
Experiment [9] addresses T4, soluble recombinant extracellular …. Nature of the experiment: SPR (BIACore 2000), NKG2D-Fc captured on anti-human IgG, RAET1E as analyte; joint global fit.
Procedure: as §1
For experiment [10] the target is unchanged. The experiment is described as follows: SPR (BIACore 2000), NKG2D-Fc captured on anti-human IgG, RAET1E as analyte; derived from joint fit.
Procedure: as §1
The target of experiment [11] is B2. The experiment is described as follows: SPR (BIACore 2000), NKG2D-Fc captured on anti-human IgG, RAET1G as analyte; separate off-rate fit.
Procedure: as §1
The target in experiment [12] is B2. The experiment is described as follows: SPR (BIACore 2000), NKG2D-Fc captured on anti-human IgG, RAET1G as analyte; derived from joint fit.
Procedure: as §1
Experiment [13] concerns the target T1, soluble recombinant extracellular …. Nature of the experiment: SPR (BIACore 2000), NKG2D-Fc captured on anti-human IgG, ULBP1 as analyte; separate off-rate fit.
Procedure: as §1
Experiment [14] has as its target T4, soluble recombinant extracellular …. The experiment is described as follows: SPR (BIACore 2000), NKG2D-Fc captured on anti-human IgG, RAET1E as analyte; separate off-rate fit.
Procedure: as §1
In experiment [15] the target is T2, soluble recombinant extracellular …. The experiment is described as follows: SPR (BIACore 2000), NKG2D-Fc captured on anti-human IgG, ULBP2 as analyte; joint global fit.
Procedure: as §1
Experiment [16] addresses B1. The experiment is described as follows: SPR (BIACore 2000); RAET1G against ULBP2 on NKG2D-Fc.
Procedure: as §1
The target in experiment [17] is B3. Nature of the experiment: SPR (BIACore 2000); kon on UL16-Fc against kon on NKG2D-Fc.
Experiment [18] addresses T4, soluble recombinant extracellular …. Nature of the experiment: SPR (BIACore 2000), UL16-Fc captured on anti-human IgG, RAET1E as analyte; derived from joint fit.
In experiment [19] the target is B2. The experiment is described as follows: SPR (BIACore 2000), UL16-Fc captured on anti-human IgG, RAET1G as analyte; derived from joint fit.
Experiment [20] concerns the target B2. Nature of the experiment: SPR (BIACore 2000), UL16-Fc captured on anti-human IgG, RAET1G as analyte; joint global fit.
Experiment [21] addresses T1, soluble recombinant extracellular …. Nature of the experiment: SPR (BIACore 2000), UL16-Fc captured on anti-human IgG, ULBP1 as analyte; joint global fit.
Experiment [22] shares this target. Nature of the experiment: SPR (BIACore 2000), UL16-Fc captured on anti-human IgG, ULBP1 as analyte; derived from joint fit.
In experiment [23] the target is T4, soluble recombinant extracellular …. Nature of the experiment: SPR (BIACore 2000), UL16-Fc captured on anti-human IgG, RAET1E as analyte; joint global fit.

One may read the koff as the first-order rate constant of dissociation. Broadly, the kon is a measure of how fast the partners come together. In general, Kd refers to the constant that tells how readily two partners part at equilibrium. Regarding B1, the koff in experiment [1] worked out at 0.0073 s⁻¹; in [2], 0.0336 s⁻¹; in experiment [5], 0.00537 s⁻¹; in [6], 0.005 s⁻¹; in experiment [7] it was 0.00374 s⁻¹; in [9] it was 0.00292 s⁻¹. In addition, the off-rate constant (koff) stood at 0.003 s⁻¹ in [11], 0.0069 s⁻¹ in experiment [13], 0.005 s⁻¹ in experiment [14] and 0.063 s⁻¹ in [15]. Besides, the on-rate constant (kon) came to 4360 M⁻¹ s⁻¹ in [1], 2350 M⁻¹ s⁻¹ in experiment [5], 10500 M⁻¹ s⁻¹ in experiment [7] and 74900 M⁻¹ s⁻¹ in experiment [9]. Besides, the Kd in experiment [3] is 7160 nM; in experiment [4], 2290 nM; in experiment [8], 1680 nM; in [10], 39 nM; in experiment [12], 356 nM.

Take B2: the “fold difference in affinity against ULBP2” value in experiment [16] is 20 fold. Besides, the “fold faster association rate for UL16 than for NKG2D” value in [17] was determined as 10 fold.

Consider B3, for which the Kd in experiment [18] came out at 504 nM; in experiment [19], 75.6 nM; in experiment [22], 243 nM. The dissociation rate constant (koff) in [20] stood at 0.00871 s⁻¹; in experiment [21] it was 0.000597 s⁻¹; in experiment [23], 0.00595 s⁻¹. The results for the kon in [20], in experiment [21] and in experiment [23] were 115000 M⁻¹ s⁻¹, 2460 M⁻¹ s⁻¹ and 11800 M⁻¹ s⁻¹, respectively.
